Consider one molecule from publication PMC3521718, “Histone Deacetylase HDA6 Is Functionally Associated with AS1 in Repression of KNOX Genes in Arabidopsis” (PLoS Genetics, 2012).

The target of the assay is T1, glutathione S-transferase (GST)-HDA6 recombinant protein (Arabidopsis thaliana, UniProt Q9FML2 1-471).
T1 construct: Histone deacetylase HDA6 of Arabidopsis; Printed both as GST-HDA6 and as HDA6-GST; also called HDA6-GST; source: recombinant protein
T1 sequence (looked up): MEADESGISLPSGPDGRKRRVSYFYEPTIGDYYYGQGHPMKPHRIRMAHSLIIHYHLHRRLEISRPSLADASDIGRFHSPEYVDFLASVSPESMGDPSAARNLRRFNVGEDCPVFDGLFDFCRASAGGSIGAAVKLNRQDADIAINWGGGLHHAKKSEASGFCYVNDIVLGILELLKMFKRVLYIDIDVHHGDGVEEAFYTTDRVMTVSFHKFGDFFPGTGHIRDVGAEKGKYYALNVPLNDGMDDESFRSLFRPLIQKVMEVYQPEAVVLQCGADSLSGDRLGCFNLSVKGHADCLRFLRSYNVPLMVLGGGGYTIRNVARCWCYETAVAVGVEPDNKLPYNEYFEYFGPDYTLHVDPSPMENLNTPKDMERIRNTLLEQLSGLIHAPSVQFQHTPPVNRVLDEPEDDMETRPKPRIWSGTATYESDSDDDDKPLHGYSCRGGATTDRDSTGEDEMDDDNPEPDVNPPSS
Briefly: pull-down; 2 µg MBP-AS1 on MBP resin, then 2 µg GST-HDA6 for 2 h at 4°C; 20 mM Tris-HCl pH 7.5, 200 mM NaCl, 1 mM EDTA; western blot with anti-GST. Conditions: both partners purified.

B1: MBP-AS1 recombinant protein (natural protein, Arabidopsis thaliana, UniProt O80931 1-367, looked up)
chain: MKERQRWSGEEDALLRAYVRQFGPREWHLVSERMNKPLNRDAKSCLERWKNYLKPGIKKGSLTEEEQRLVIRLQEKHGNKWKKIAAEVPGRTAKRLGKWWEVFKEKQQREEKESNKRVEPIDESKYDRILESFAEKLVKERSNVVPAAAAAATVVMANSNGGFLHSEQQVQPPNPVIPPWLATSNNGNNVVARPPSVTLTLSPSTVAAAAPQPPIPWLQQQQPERAENGPGGLVLGSMMPSCSGSSESVFLSELVECCRELEEGHRAWADHKKEAAWRLRRLELQLESEKTCRQREKMEEIEAKMKALREEQKNAMEKIEGEYREQLVGLRRDAEAKDQKLADQWTSRHIRLTKFLEQQMGCRLDRP
notes: The methods spell MBP out as 'Myelin basic protein'; source: purified recombinant protein
Regarding B1, the binding result is on record as “binds”.
